Source: publication PMC7954794, “Protein context shapes the specificity of SH3 domain-mediated interactions in vivo” (Nature Communications, 2021)

B1: YDL146W (protein, UniProt Q12342 1-491, looked up)
Protein LDB17: MILDPLSPNIENHTQDEIIEFWEKTESIANIPKENLDESHVNSSLVAYLKFATDSYKVFINTDRDLYRMSLILLESSLFEFKKEFCLSKLQSLLNIDLLEMNMKFIIVYILLCEAKKNVYSLEIMLKFQGFTVFYNTLYTQFAYLSKYGKERTVASKHQYNSNNSSTGTSLDSLDRSLTDIDLGIIDEMKQISTVLMDLLFQIMKYCKCVIANLQIVDDFFVYYMMESMRSDTMDDMFNNAEFKLLLALNEQYMMFAKEYDIENKVYKYLINGSVSRCFTELLLLKFNRASDPPLQIMMCKIIYLILTPRGDYSPMNFFYTNDLRVLIDVLIRELQNISEDEEVLRNTLLRVLIPLLKNTQLSKTHYRKDDLNKLLNYLSTLDNICVDSPALHEHQVTVALSRKCLQQIPWLETPSTPSDGGSSVSSNNTSRNSSIVALGTPDNQNILARKGHLYSNRELDVSAESLTKRKAKAPPPPPPPPPSRKCGTPK
B2: YMR216C (protein, UniProt Q03656 1-742, looked up)
Serine/threonine-protein …: MGSSINYPGFVTKSAHLADTSTDASISCEEATSSQEAKKNFFQRDYNMMKKAPAPTKSKLSLALQTSKSSSSANGTVQEDTSSKTEDFSTKSIKKKPDSGVESHVSIQSDSGPQSDSDLDSDSSISSCDERNEESLKDYRPGGYHPAFKGEPYKDARYILVRKLGWGHFSTVWLAKDMVNNTHVAMKIVRGDKVYTEAAEDEIKLLQRVNDADNTKEDSMGANHILKLLDHFNHKGPNGVHVVMVFEVLGENLLALIKKYEHRGIPLIYVKQISKQLLLGLDYMHRRCGIIHTDIKPENVLMEIGDVEGIVQMVEALDKQKREAKRLQRHVSRSSDITANDSSDEKWAECQTSMPCGSSSNSKSRSIEKDLSKRCFRRPRRHTIITGSQPLPSPISSSNFFEMRAHFCGSSHNSFSSVSGNRNIPSSINNNSINNGIGIKNSNNSFLNSVPHSVTRMFINEDSNDNNNNDNSKNKNNNNNNSNNNNNEDIMNTPLHEEQLADSLSTFDISNISQSSDTNGPYISNTMDSNSNVSTDINSPENLIQIKIADLGNACWYDEHYTNSIQTREYRSPEVLLGAPWGCGADIWSTACLIFELITGDFLFEPDEGHSYTKDDDHIAQIIELLGELPSYLLRNGKYTRTFFNSRGLLRNISKLKFWPLEDVLTEKYKFSKDEAKEISDFLSPMLQLDPRKRADAGGLVNHPWLKDTLGMEEIRVPDRELYGSGSDIPGWFEEVRDHKRH
B3: YNL098C (protein, UniProt P01120 2-319, looked up)
Ras-like protein 2: PLNKSNIREYKLVVVGGGGVGKSALTIQLTQSHFVDEYDPTIEDSYRKQVVIDDEVSILDILDTAGQEEYSAMREQYMRNGEGFLLVYSITSKSSLDELMTYYQQILRVKDTDYVPIVVVGNKSDLENEKQVSYQDGLNMAKQMNAPFLETSAKQAINVEEAFYTLARLVRDEGGKYNKTLTENDNSKQTSQDTKGSGANSVPRNSGGHRKMSNAANGKNVNSSTTVVNARNASIESKTGLAGNQATNGKTQTDRTNIDNSTGQAGQANAQSANTVNNRVNNNSKAGQVSNAKQARKQQAAPGGNTSEASKSGSGGCC
B4: YFR040W (protein, UniProt P43612 1-1002, looked up)
SIT4-associating protein …: MSFWPFGQNLNHSNINKILDEYFHVLHELERINPSVGKAIPAIFNNVQERGTSDSLDSIPEEYSHGDEVKTARGDQKSRFEKDDQQERYEKEEEERSMNSSESSTTSFSSGSTSKTDLDEEDISNATAPMMVTTKNLDNSFIERMLVETELLNELSRQNKTLLDFICFGFFFDKKTNKKVNNMEYLVDQLMECISKIKTATTVDLNNLIDYQEQQQLDDSSQEDVYVESDTEQEEEKEDDNNSNNKKRRKRGSSSFGNDDINNNDDDDDANEDDESAYLTKATIISEIFSLDIWLISESLVKNQSYLNKIWSIINQPNFNSENSPLVPIFLKINQNLLLTRQDQYLNFIRTERSFVDDMLKHVDISLLMDFFLKIISTDKIESPTGIIELVYDQNLISKCLSFLNNKESPADIQACVGDFLKALIAISANAPLDDISIGPNSLTRQLASPESIAKLVDIMINQRGAALNTTVSIVIELIRKNNSDYDQVNLLTTTIKTHPPSNRDPIYLGYLLRKFSNHLSDFFQIILDIENDANIPLHENQLHEKFKPLGFERFKVVELIAELLHCSNMGLMNSKRAERIARRRDKVRSQLSHHLQDALNDLSIEEKEQLKTKHSPTRDTDHDLKNNNGKIDNDNNDNDDESDYGDEIDESFEIPYINMKQNIKLRTDPTVGDLFKIKLYDTRIVSKIMELFLTHPWNNFWHNVIFDIIQQIFNGRMDFSYNSFLVLSLFNLKSSYQFMTDIVISDEKGTDVSRFSPVIRDPNFDFKITTDFILRGYQDSYKFYELRKMNLGYMGHIVLIAEEVVKFSKLYKVELISPDIQVILQTEEWQYYSEEVLNETRMMYSKILGGGSYIDDGNGNIIPQLPDNTTVLTPNGDASNNNEILDSDTGSSNGTSGGGQLINVESLEEQLSLSTESDLHNKLREMLINRAQEDVDNKNTENGVFILGPPEDKNSNSNINNTNHNSNNSNNNDNNDNNDNDNDNTRNYNEDADNDNDYDHE
B5: YGL252C (protein, UniProt P32608 1-588, looked up)
Retrograde regulation protein …: MSTLSDSDTETEVVSRNLCGIVDIGSNGIRFSISSKAAHHARIMPCVFKDRVGLSLYEVQYNTHTNAKCPIPRDIIKEVCSAMKRFKLICDDFGVPETSVRVIATEATRDAINADEFVNAVYGSTGWKVEILGQEDETRVGIYGVVSSFNTVRGLYLDVAGGSTQLSWVISSHGEVKQSSKPVSLPYGAGTLLRRMRTDDNRALFYEIKEAYKDAIEKIGIPQEMIDDAKKEGGFDLWTRGGGLRGMGHLLLYQSEGYPIQTIINGYACTYEEFSSMSDYLFLKQKIPGSSKEHKIFKVSDRRALQLPAVGLFMSAVFEAIPQIKAVHFSEGGVREGSLYSLLPKEIRAQDPLLIASRPYAPLLTEKYLYLLRTSIPQEDIPEIVNERIAPALCNLAFVHASYPKELQPTAALHVATRGIIAGCHGLSHRARALIGIALCSRWGGNIPESEEKYSQELEQVVLREGDKAEALRIVWWTKYIGTIMYVICGVHPGGNIRDNVFDFHVSKRSEVETSLKELIIDDANTTKVKEESTRKNRGYEVVVRISKDDLKTSASVRSRIITLQKKVRKLSRGSVERVKIGVQFYEE
B6: YNL020C (protein, UniProt P53974 1-638, looked up)
Actin-regulating kinase 1: MNQPQIGTYNVGTQLTVGSHQVEIIKYLTSGGFAQVYSALINPPDPHSNSSVACLKRVIVPDKPSLNTLRAEVDAMRLLKNNRYVVSYIDSHAAKAMLHNGSYEVFVLMEYCERGGLIDFMNTRLQNRLHEFEILQIMSQVTQGVAAMHALQPPLIHRDIKIENVLISANNEYKLCDFGSVCGIIRPPRNSQELSYVQQDILKNTTAQYRSPEMIDTFRGLPIDEKSDIWALGIFLYKLCYYTTPFEKGGDLAILSGKFEFPLYPNYSEQLKGLIRDILVQDPRHRPNVYQLLKRISIMQNVPCPINDIQVVQAPSSHLNLTELHQLSATQNILSLNSPTTMENTMPNATFQISMADNTTTAQMHPNRKPSQIAYDASFSNSAKGSQPLFDKSQNMYHALDPPLVEPLASSVSNNDNELKANSATKLKQAIVSEAHTFRQNNSIDFPLQNIIPQYEDSSSSSDESYSGDVDELKKTRSLGSYSTRGNIKKNQSVKESLTSSSLPGTSFTPTSTKVNLKHENSPFKSTFVNTIDNSKDDLNKPSYEDLDVSKQNLKNSIQQRMIDKLNSSEESFNARKMSKVKLHEKGEIDKPTMLKSSGPISKDKKTKPTPPPKPSHLKPKPPPKPLLLAGRKLSLDK
B7: YJL128C (protein, UniProt P08018 1-668, looked up)
MAP kinase kinase PBS2: MEDKFANLSLHEKTGKSSIQLNEQTGSDNGSAVKRTSSTSSHYNNINADLHARVKAFQEQRALKRSASVGSNQSEQDKGSSQSPKHIQQIVNKPLPPLPVAGSSKVSQRMSSQVVQASSKSTLKNVLDNQETQNITDVNINIDTTKITATTIGVNTGLPATDITPSVSNTASATHKAQLLNPNRRAPRRPLSTQHPTRPNVAPHKAPAIINTPKQSLSARRGLKLPPGGMSLKMPTKTAQQPQQFAPSPSNKKHIETLSNSKVVEGKRSNPGSLINGVQSTSTSSSTEGPHDTVGTTPRTGNSNNSSNSGSSGGGGLFANFSKYVDIKSGSLNFAGKLSLSSKGIDFSNGSSSRITLDELEFLDELGHGNYGNVSKVLHKPTNVIMATKEVRLELDEAKFRQILMELEVLHKCNSPYIVDFYGAFFIEGAVYMCMEYMDGGSLDKIYDESSEIGGIDEPQLAFIANAVIHGLKELKEQHNIIHRDVKPTNILCSANQGTVKLCDFGVSGNLVASLAKTNIGCQSYMAPERIKSLNPDRATYTVQSDIWSLGLSILEMALGRYPYPPETYDNIFSQLSAIVDGPPPRLPSDKFSSDAQDFVSLCLQKIPERRPTYAALTEHPWLVKYRNQDVHMSEYITERLERRNKILRERGENGLSKNVPALHMGGL
B8: YLR330W (protein, UniProt Q12114 1-671, looked up)
Chitin biosynthesis protein …: MSSVDVLLTVGKLDASLALLTTQDHHVIEFPTVLLPENVKAGSIIKMQVSQNLEEEKKQRNHFKSIQAKILEKYGTHKPESPVLKIVNVTQTSCVLAWDPLKLGSAKLKSLILYRKGIRSMVIPNPFKVTTTKISGLSVDTPYEFQLKLITTSGTLWSEKVILRTHKMTDMSGITVCLGPLDPLKEISDLQISQCLSHIGARPLQRHVAIDTTHFVCNDLDNEESNEELIRAKHNNIPIVRPEWVRACEVEKRIVGVRGFYLDADQSILKNYTFPPVNEEELSYSKENEPVAEVADENKMPEDTTDVEQVASPNDNESNPSEAKEQGEKSGHETAPVSPVEDPLHASTALENETTIETVNPSVRSLKSEPVGTPNIEENKADSSAEAVVEEPNEAVAESSPNEEATGQKSEDTDTHSNEQADNGFVQTEEVAENNITTESAGENNEPADDAAMEFGRPEAEIETPEVNESIEDANEPAEDSNEPVEDSNKPVKDSNKPVEDSNKPVEDSNKPVEDSNKPVEDANEPVEDTSEPVEDAGEPVQETNEFTTDIASPRHQEEDIELEAEPKDATESVAVEPSNEDVKPEEKGSEAEDDINNVSKEAASGESTTHQKTEASASLESSAVTEEQETTEAEVNTDDVLSTKEAKKNTGNSNSNKKKNKKNKKKGKKK
B9: YJL155C (protein, UniProt P32604 1-452, looked up)
Fructose-2,6-bisphosphatase: MGYSTISNDNDIKVCVIMVGLPARGKSFISQKIIRYLSWLSIKAKCFNVGNYRRDVSGNVPMDAEFFNFENTDNFKLRELAAQNAIKDIVNFFTKEDGSVAVFDATNSTRKRRKWLKDICEKNNIQPMFLESWSNDHELIINNAKDIGSTSPDYENSEPHVAEADFLERIRQYERFYEPLDPQKDKDMTFIKLVNIIEEVVINKIRTYLESRIVFYVMNIRPKPKYIWLSRHGESIYNVEKKIGGDSSLSERGFQYAKKLEQLVKESAGEINLTVWTSTLKRTQQTANYLPYKKLQWKALDELDAGVCDGMTYEEIEKEYPEDFKARDNDKYEYRYRGGESYRDVVIRLEPVIMELERQENVLIITHQAVLRCIYAYFMNVPQEESPWMSIPLHTLIKLEPRAYGTKVTKIKANIPAVSTYKEKGTSQVGELSQSSTKLHQLLNDSPLEDKF
B10: YNL255C (protein, UniProt P53849 1-153, looked up)
Zinc finger protein GIS2: MSQKACYVCGKIGHLAEDCDSERLCYNCNKPGHVQTDCTMPRTVEFKQCYNCGETGHVRSECTVQRCFNCNQTGHISRECPEPKKTSRFSKVSCYKCGGPNHMAKDCMKEDGISGLKCYTCGQAGHMSRDCQNDRLCYNCNETGHISKDCPKA

Tested on: ABP1
Assay: DHFR-PCA on solid medium, bait ABP1 (Fig. 1B)
Format: cell-based, Saccharomyces cerevisiae
Details: bait ABP1, label = prey; 2-4 replicates
From the text: Supplement 41467_2021_21873_MOESM8_ESM.xlsx, sheet "Fig1B" | column: medsize; medrep; Ratio; Score

| Molecule | medrep (log2 median colony size normalized to plate background, PCA score) |
| --- | --- |
| B1 | 3.631 |
| B2 | 1.64 |
| B3 | 3.322 |
| B4 | 2.847 |
| B5 | 2.12 |
| B6 | 4.233 |
| B7 | 2.693 |
| B8 | 3.386 |
| B9 | 1.596 |
| B10 | 2.801 |
